B1: H5 Fab (Fab, V domains shown)
VH: QEQLVESGGGLVTPGGTLTLTCTASGFTISSYHMTWVRQAPGKGLEWIGVISNSGGTSYANWAKGRFTISKTSTTVDLKITSPTTEDTATYFCVRGVPGINSNLWGQGTLVTISS
VL: AQVLTQTPSSVSAAVGGTVTINCQSSQSVYSGNWLAWYQQKPGQPPKLLIYSTSTLASGVPSRFKGSGSGTQFTLTVSDLECDDAATYYCAGDYDGYKNAFGGGTKVVVKR
notes: Detected with anti-HA tag or anti-human Fab antibody, so vector tags may be present; they are not described; also called antibody fragment H5 Fab; antibody (Fab) of colon H5
B3: AIMP2-DX2 epitope peptide (amino acid residues 42 to 52, GHVQDYGALKD, of the AIMP2-DX2 protein) (peptide)
peptide: GHVQDYGALKD

Legend:
[1] = biological target: T1, AIMP2 protein (wild type, full-length) (human, UniProt Q13155 1-312, limits assumed); assay: Western blot of H460 cell lysates (FIG. 22)
T1 construct: 217 is written here; B42 fusion (pJG4-5) in yeast two hybrid; 35S-labelled in vitro translation product in the pull-down; endogenous in A549, DU145 and H460 cells; also called AIMP2-F; p38
T1 sequence: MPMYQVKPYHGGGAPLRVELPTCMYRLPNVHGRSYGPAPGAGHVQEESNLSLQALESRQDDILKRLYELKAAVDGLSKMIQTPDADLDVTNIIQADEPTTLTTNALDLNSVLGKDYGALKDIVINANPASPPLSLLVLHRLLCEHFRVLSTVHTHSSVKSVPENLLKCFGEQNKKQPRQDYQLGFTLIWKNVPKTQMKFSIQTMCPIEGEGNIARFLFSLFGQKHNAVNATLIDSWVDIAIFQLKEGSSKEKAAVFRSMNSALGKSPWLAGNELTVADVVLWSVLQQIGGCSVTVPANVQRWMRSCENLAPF
Method: Lastly, it was tested whether H5 antibody is capable of differentiating AIMP2-DX2 from wild type AIMP2 protein (See FIG. 22). Western blot analysis was performed on H460 cell lysates using the H5 antibody.

[2] = biological target: T2, AIMP2-DX2 with thirty three (33) N-terminal amino acids deleted, fused with strep tag (human, UniProt Q13155 34-320); assay: Western blot of HEK293T lysates (FIG. 20a)
T2 construct: Expressed in HEK293T cells, tested in cell lysate; also called Δ33-DX2; Δ33; not shown: strep tag of thirty amino acids including a linker peptide
T2 sequence: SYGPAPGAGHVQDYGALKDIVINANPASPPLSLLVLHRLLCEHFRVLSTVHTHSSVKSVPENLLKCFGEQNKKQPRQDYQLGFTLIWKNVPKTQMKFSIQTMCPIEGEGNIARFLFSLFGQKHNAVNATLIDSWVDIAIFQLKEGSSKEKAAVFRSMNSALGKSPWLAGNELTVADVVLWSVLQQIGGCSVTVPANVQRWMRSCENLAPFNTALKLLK
Description: (§1) FIG. 20a and FIG. 20b show a test result of determining the effect of N-terminal amino acid deletion of the AIMP2-DX2 protein on the binding between the H5 Fab and the AIMP2-DX2 protein. […] Being fused with strep tag, the AIMP2-DX2 proteins expressed in HEK293T cells were the full-length AIMP2-DX2 protein (“F-DX2” or “F”) and its N-terminal deleted isotypes (“42-DX2” or “42” for two (2) amino acid deletion; “423-DX2” or “423” for twenty three (23) amino acid deletion; “433-DX2” or “433” for thirty three (33) amino acid deletion), respectively. […] “EV” means an empty vector.
(§2) Further, the effect of N-terminal amino acid deletion of the AIMP2-DX2 protein on the binding between H5 Fab and AIMP2-DX2 protein was analyzed (See FIG. 20). It was reported that N-terminal amino acid residues of the AIMP2-DX2 exert a significant effect on the solubility of the AIMP2-DX2. AIMP2-DX2 derivatives in which the N-terminal two (2), twenty three (23) or thirty three (33) amino acid residues were deleted, respectively, were prepared (See FIG. 20b). The full-length AIMP2-DX2 and its isotypes were fused with strep tag and then expressed in the HEK293T cells, followed by Western blot analysis using H5 Fab.

[3] = biological target: T3, AIMP2-DX2 with twenty three (23) N-terminal amino acids deleted, fused with strep tag (human, UniProt Q13155 24-320); assay: Western blot of HEK293T lysates (FIG. 20a)
T3 construct: Expressed in HEK293T cells, tested in cell lysate; also called Δ23-DX2; Δ23; not shown: strep tag of thirty amino acids including a linker peptide
T3 sequence: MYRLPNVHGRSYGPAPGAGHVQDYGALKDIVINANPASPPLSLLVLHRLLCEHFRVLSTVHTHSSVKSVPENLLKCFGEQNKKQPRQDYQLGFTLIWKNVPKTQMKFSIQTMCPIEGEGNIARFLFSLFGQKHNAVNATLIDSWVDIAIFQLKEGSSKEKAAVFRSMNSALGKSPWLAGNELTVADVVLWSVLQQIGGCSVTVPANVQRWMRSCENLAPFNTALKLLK
Description: as §1, §2

[4] = biological target: T4, AIMP2-DX2 with two (2) N-terminal amino acids deleted, fused with strep tag (human, UniProt Q13155 3-320); assay: Western blot of HEK293T lysates (FIG. 20a)
T4 construct: Expressed in HEK293T cells, tested in cell lysate; also called Δ2-DX2; Δ2; not shown: strep tag of thirty amino acids including a linker peptide
T4 sequence: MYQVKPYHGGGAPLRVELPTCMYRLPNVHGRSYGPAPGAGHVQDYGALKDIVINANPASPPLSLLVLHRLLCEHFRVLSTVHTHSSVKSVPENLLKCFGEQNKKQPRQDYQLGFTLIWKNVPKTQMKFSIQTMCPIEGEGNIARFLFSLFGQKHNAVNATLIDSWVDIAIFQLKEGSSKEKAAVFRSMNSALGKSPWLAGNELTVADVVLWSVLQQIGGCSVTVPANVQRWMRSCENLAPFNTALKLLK
Description: as §1, §2

[5] = biological target: B3; assay: surface plasmon resonance, H5 IgG on CM5 chip, peptide in flow (FIG. 21a)
Description: H5 antibody and IgG proteins were coated on the CM5 chips, while the exemplary AIMP2-DX2 epitope peptide (i.e. amino acid residues 42 to 52 ([…]) as shown in SEQ ID NO: 2 or SEQ ID NO: 17) at various concentrations was flowed over the chip. As shown in FIG. 21a and FIG. 21b, the binding affinity between H5 IgG antibody and the AIMP2-DX2 epitope peptide was indicated in sensorgram. X axis of sensorgram indicates time (second, s), while y axis means response (response unit, RU). The description in a box indicates a concentration of the AIMP2-DX2 epitope peptide in nM.
Still further, the binding affinity between H5 IgG antibody and the exemplary AIMP2-DX2 epitope peptide was determined by using surface plasmon resonance analysis (See FIG. 21). The H5 antibody (IgG) and IgG proteins were coated on the CM5 chips, while the exemplary AIMP2-DX2 epitope peptide at various concentrations was flowed over the chip to monitor the real time association and dissociation between H5 antibody and the exemplary AIMP2-DX2 epitope peptide. Analysis reagents and buffer were injected at the flow velocity of 15 μl/min. for 6 min, followed by washing for 20 min. Analysis was performed in sensorgram in which a response result of a blank without protein coating is subtracted from a response results between H5 antibody or IgG and the AIMP2-DX2 epitope peptides.

[6] = biological target: B1; assay: antigen pre-adsorption, 100 µg/ml peptide with H5 Fab, Western blot of H460 lysate (FIG. 18)
Method: Firstly, antigen pre-adsorption analysis was conducted in order to confirm whether the prepared H5 Fab specifically binds to the AIMP2-DX2. After electrophoresis of cell lysates of H460 lung cancer cells which expressed the AIMP2-DX2, Western blot analysis was performed using a H5 Fab in the presence of 100 μg/ml of the AIMP2-DX2 epitope polypeptide ([…]) (indicated as “+” in FIG. 18) and a H5 Fab without the addition of the AIMP2-DX2 epitope peptide (indicated as “−” in FIG. 18), respectively.

[7] = biological target: T5, Smad2 (human) (human, UniProt Q15796 1-467, limits assumed); assay: yeast two hybrid (FIG. 4e)
T5 construct: LexA fusion (pEG202) in yeast two hybrid; also called R-Smad2; Lex-Smad2
T5 sequence (Q15796 whole entry, the tested form may be a part): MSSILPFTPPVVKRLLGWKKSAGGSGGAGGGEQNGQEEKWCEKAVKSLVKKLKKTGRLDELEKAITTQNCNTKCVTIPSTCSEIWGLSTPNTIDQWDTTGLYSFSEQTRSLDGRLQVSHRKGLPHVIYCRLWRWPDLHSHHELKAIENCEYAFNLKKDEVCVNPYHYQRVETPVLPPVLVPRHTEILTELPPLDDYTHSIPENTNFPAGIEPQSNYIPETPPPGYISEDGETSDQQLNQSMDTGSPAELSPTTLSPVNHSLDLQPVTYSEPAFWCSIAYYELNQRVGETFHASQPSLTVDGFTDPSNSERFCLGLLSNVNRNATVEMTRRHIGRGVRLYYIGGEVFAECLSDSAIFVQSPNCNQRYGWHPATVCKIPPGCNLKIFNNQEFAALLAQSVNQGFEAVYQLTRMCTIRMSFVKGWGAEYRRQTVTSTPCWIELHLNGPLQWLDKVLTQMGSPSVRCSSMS

[8] = biological target: T6, FUSE-binding protein (UniProt Q96AE4 1-644, limits assumed); assay: yeast two hybrid (FIG. 4e)
T6 construct: Yeast two hybrid fusion; construct not described; also called FBP
T6 sequence (looked up): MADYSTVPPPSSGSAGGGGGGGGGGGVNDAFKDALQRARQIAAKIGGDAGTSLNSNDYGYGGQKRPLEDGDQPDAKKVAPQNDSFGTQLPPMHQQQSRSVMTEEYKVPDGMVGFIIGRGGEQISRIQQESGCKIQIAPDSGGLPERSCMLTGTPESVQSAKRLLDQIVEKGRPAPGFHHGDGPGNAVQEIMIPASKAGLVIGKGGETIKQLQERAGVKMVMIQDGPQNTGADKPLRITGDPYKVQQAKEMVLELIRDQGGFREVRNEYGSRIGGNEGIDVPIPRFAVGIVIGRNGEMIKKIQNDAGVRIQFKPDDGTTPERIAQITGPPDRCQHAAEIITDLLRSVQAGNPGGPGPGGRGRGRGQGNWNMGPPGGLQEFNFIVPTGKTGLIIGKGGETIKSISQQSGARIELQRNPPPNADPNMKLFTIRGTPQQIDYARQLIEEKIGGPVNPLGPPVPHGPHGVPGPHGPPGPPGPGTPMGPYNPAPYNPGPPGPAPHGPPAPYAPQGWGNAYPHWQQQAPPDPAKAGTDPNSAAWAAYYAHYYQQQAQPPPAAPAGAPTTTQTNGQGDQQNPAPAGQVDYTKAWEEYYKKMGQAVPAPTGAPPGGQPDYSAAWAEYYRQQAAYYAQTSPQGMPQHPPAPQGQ

B1: no binding [1]; binds [2]; binds [3]. B1: binds [4].

B2: H5 IgG antibody (antibody, V domains shown)
VH: QEQLVESGGGLVTPGGTLTLTCTASGFTISSYHMTWVRQAPGKGLEWIGVISNSGGTSYANWAKGRFTISKTSTTVDLKITSPTTEDTATYFCVRGVPGINSNLWGQGTLVTISS
VL: AQVLTQTPSSVSAAVGGTVTINCQSSQSVYSGNWLAWYQQKPGQPPKLLIYSTSTLASGVPSRFKGSGSGTQFTLTVSDLECDDAATYYCAGDYDGYKNAFGGGTKVVVKR
notes: also called H5 antibody (IgG); H5 antibody
B2: binds [5].

B3: binds [6].

B4: AIMP2-DX2 protein (other)
chain: MPMYQVKPYHGGGAPLRVELPTCMYRLPNVHGRSYGPAPGAGHVQDYGALKDIVINANPASPPLSLLVLHRLLCEHFRVLSTVHTHSSVKSVPENLLKCFGEQNKKQPRQDYQLGFTLIWKNVPKTQMKFSIQTMCPIEGEGNIARFLFSLFGQKHNAVNATLIDSWVDIAIFQLKEGSSKEKAAVFRSMNSALGKSPWLAGNELTVADVVLWSVLQQIGGCSVTVPANVQRWMRSCENLAPFNTALKLLK
notes: Endogenous protein in H460 or SW460 cell lysates in the Western blots; LexA/B42 fusion in yeast two hybrid; 35S-labelled in vitro translation product (pET-28a) in the pull-down; also called p38DX2; AIMP2 lacking exon 2
B4: no binding [7]; no binding [8].
